Results on two molecules are retold here after patent US10028997B2, “Systems and methods for attracting and trapping brain cancer cells” (GEISINGER HEALTH SYSTEM, priority 2014, dated 2018).

Holding throughout (type): cell-based
In assay [1] the test system is human glioblastoma stem cells (hGSCs). As to the kind of experiment: XCELLIGENCE RTCA CIM-16 (Boyden chamber) migration of hGSCs, Lcn2 in lower chamber. Here is the method: Human glioblastoma stem cells (hGSCs) were seeded in an XCELLIGENCE RTCA CIM-16 plate, which functions as a Boyden chamber, in serum-free media. The XCELLIGENCE system (ACEA BIOSCIENCES, INC.) measures total surface area covered by cell membrane by detecting the electrical impedance, using microelectronic biosensor technology (Ness et al., NATURE COMMUNICATIONS 4:1912 (2013)). The lower chamber was supplemented with 10 μg/ml Lcn2 or 10% serum. Cell migration from the upper to the lower chamber was measured and plotted over time and the migration slope was calculated using RTCA DP software (ACEA BIOSCIENCES, INC.). The experiment was repeated four times and the results are presented as average+/−standard deviation.

Assay [2] deals with human glioblastoma cells. As to the kind of experiment: XCELLIGENCE migration after Lcn2 pre-treatment of glioblastoma cells. The conditions noted are these: pre-treated with 10 μg/ml Lcn2 for 24 hours; p<0.0001; FIGS. 2B and 2C. Here is the method:
To further determine the effect of Lcn2 on glioblastoma cell migration, glioblastoma cells were first pre-treated with 10 μg/ml Lcn2 for 24 hours. Migration was subsequently quantified using the XCELLIGENCE system in the presence or absence of Lcn2 as a chemo-attractant in the lower Boyden chamber.

Assay [3] concerns human glioblastoma stem cells (hGSCs). Description: Boyden chamber migration, crystal violet staining and microscope cell count. The conditions noted are these: for hGSC migration (cells counted in bottom chamber): 10 μg/ml in bottom chamber, 16 hours, serum free medium, p<0.0001, FIGS. 3B and 3C. Here is the method:
Finally, human glioblastoma cell migration was also observed under the microscope. hGSCs were seeded in the upper Boyden chamber in serum free medium. Lcn2 was added to the bottom chamber at 10 μg/ml and cells were allowed to migrate for 16 hours. The bottom chamber was fixed and stained with crystal violet and cells were counted using a Zeiss Phase Contrast microscope at 10× magnification. […] To show the specificity of the Lcn2 chemotactic effect and to determine if the effect of Lcn2 on migration is […], Lcn2 was denatured by boiling in SDS buffer for 10 minutes and then added to the bottom Boyden chamber.

For assay [4] the test system is unchanged. As to the kind of experiment: Chemotaxis assay plate, linear Lcn2 gradient. The conditions noted are these: linear gradient of 10 μg/ml Lcn2 for 8 hours, FIGS. 4A-C.

B1: lipocalin-2 (protein, listed as Homo sapiens)
chain: MPLGLLWLGLALLGALHAQAQDSTSDLIPAPPLSKVPLQQNFQDNQFQGKWYVVGLAGNAILREDKDPQKMYATIYELKEDKSYNVTSVLFRKKKCDYWIRTFVPGCQPGEFTLGNIKSYPGLTSYLVRVVSTNYNQHAMVFFKKVSQNREYFKITLYGRTKELTSELKENFIRFSKSLGLPENHIVFPVPIDQCIDG
notes: member of the lipocalin family, a 23 kDa hydrophilic protein
Consider B1, for which, in assay [1] (10 μg/ml Lcn2 in lower chamber vs 10% serum, serum-free media, FIG. 2A), the “migration of hGSCs from upper to lower chamber” value is recorded as “increases the migration of hGSCs as compared to serum alone”. The “attraction of hGSCs toward the bottom chamber containing the Lcn2 depot” value in assay [1] (10 μg/ml Lcn2 in lower chamber, FIG. 3A) is listed as “significantly attracts hGSCs toward the bottom chamber”. The “migration after pre-treatment with Lcn2” value in assay [2] is reported as “induced a significant increase in migration”. Also, the “hGSC migration (cells counted in bottom chamber)” value in assay [3] is “a significant increase in hGSC migration was observed”. For the same molecule, the “rate of migration of hGSCs, lipocalin-2 in one chamber versus PBS in one chamber or lipocalin-2 in both chambers” value in assay [3] (FIGS. 3B, 3C) is recorded as “increases the rate of migration of human glioblastoma stem cells (hGSCs) to the lipocalin-2-containing chamber”. In assay [4], the “migration towards the opposite direction (chemokinesis)” value is on record as “no difference in migration towards the opposite direction”. For the same molecule, the “migration toward the linear Lcn2 gradient (chemotaxis)” value in assay [4] (p<0.005) was “increased migration toward the linear Lcn2 gradient”.

B2: denatured Lcn2: Lcn2 denatured by boiling in SDS buffer for 10 minutes (protein)
chain: QDSTSDLIPAPPLSKVPLQQNFQDNQFQGKWYVVGLAGNAILREDKDPQKMYATIYELKEDKSYNVTSVLFRKKKCDYWIRTFVPGCQPGEFTLGNIKSYPGLTSYLVRVVSTNYNQHAMVFFKKVSQNREYFKITLYGRTKELTSELKENFIRFSKSLGLPENHIVFPVPIDQCIDG
Consider B2, for which the “hGSC migration (cells counted in bottom chamber)” value in assay [3] is “No effect on hGSC migration was observed”.
